Residue numbers refer to the chain shown, from its start. Values belong to the substance of their own block, whether it stands above or below them.
Columns and labels:
[1] = target: Magnetospirillum gryphiswaldense MSR-1 Fur C9L/M14L/M16V-triple mutant (Magnetospirillum gryphiswaldense MSR-1); assay: crystal structure; holo-Fur with 1 mM MnCl2, 1.9 Å; 10% PEG3000, 0.1 M CHES pH 9.0
[2] = target: Magnetospirillum gryphiswaldense MSR-1 Fur C9L/M14L/M16V-triple mutant (Magnetospirillum gryphiswaldense MSR-1); assay: crystal structure; Fur-Mn2+ with the 25-bp feoAB1 operator dsDNA (three base-pair mutations), 2.6 Å (SeMet form 2.82 Å)
[3] = target: Magnetospirillum gryphiswaldense MSR-1 ferric uptake regulator (Fur), wild type (Magnetospirillum gryphiswaldense MSR-1); assay: SEC; size-exclusion chromatography of apo-Fur in solution
[4] = target: Magnetospirillum gryphiswaldense MSR-1 ferric uptake regulator (Fur), wild type (Magnetospirillum gryphiswaldense MSR-1); assay: AUC; analytical ultracentrifugation of apo-Fur in solution
[5] = target: Magnetospirillum gryphiswaldense MSR-1 ferric uptake regulator (Fur), wild type (Magnetospirillum gryphiswaldense MSR-1); assay: crystal structure; apo-Fur without transition metal ions, 1.55 Å; crystals from (NH4)2SO4, 0.1 M sodium citrate pH 5.5
[6] = target: T1, MgFur E108A/H125A (metal site 2 mutant) E108A;H125A (Magnetospirillum gryphiswaldense MSR-1) (UniProt V6F4Q0); assay: SPR; details: 1 mM Mn2+, SPR: 20 mM Tris-HCl pH 8.0, 150 mM NaCl, 1 mM MnCl2, 0.005% Tween20, 25 C, EMSA: 40 mM HEPES pH 7.0, 125 mM NaCl, 2 mM FeSO4/MnCl2/EDTA, footprinting: …
T1 sequence: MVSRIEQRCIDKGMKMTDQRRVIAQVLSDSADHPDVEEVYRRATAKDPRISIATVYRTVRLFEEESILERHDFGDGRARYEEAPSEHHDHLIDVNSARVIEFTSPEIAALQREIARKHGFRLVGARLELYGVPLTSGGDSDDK

[7] = target: T2, MgFur K15A K15A (Magnetospirillum gryphiswaldense MSR-1) (UniProt V6F4Q0); assay: SPR; details: 1 mM Mn2+, SPR: 20 mM Tris-HCl pH 8.0, 150 mM NaCl, 1 mM MnCl2, 0.005% Tween20, 25 C, EMSA: 40 mM HEPES pH 7.0, 125 mM NaCl, 2 mM FeSO4/MnCl2/EDTA, footprinting: …
T2 sequence: T1 sequence with K15A, A108E, A125H

[8] = target: T3, MgFur WT (Magnetospirillum gryphiswaldense MSR-1) (UniProt V6F4Q0); assay: SPR; details: 1 mM Mn2+, SPR: 20 mM Tris-HCl pH 8.0, 150 mM NaCl, 1 mM MnCl2, 0.005% Tween20, 25 C, EMSA: 40 mM HEPES pH 7.0, 125 mM NaCl, 2 mM FeSO4/MnCl2/EDTA, footprinting: …
T3 sequence: T1 sequence with A108E, A125H

stoichiometry N [1]: 2 | stoichiometry N [2]: 2
Substance: Magnetospirillum gryphiswaldense MSR-1 Fur C9L/M14L/M16V-triple mutant (natural protein)

stoichiometry N [3]: 2 | stoichiometry N [4]: 2 | stoichiometry N [5]: 2
Substance: Magnetospirillum gryphiswaldense MSR-1 ferric uptake regulator (Fur), wild type (natural protein)

Substance: TTAATCGCAACTCATTCGCAATTGC (double strand) [feoAB1 operator (SPR)]
Kd [6]: 0.272 µM | Kd [7]: 0.977 µM | Kd [8]: 0.085 µM
